Test [1] addresses HLA-A*01:01. As to the kind of experiment: IEDB peptide-MHC binding, purified MHC/direct/fluorescence; filed as Kd, often an IC50 or EC50 that approximates it; ≥ and ≤ were set here for values at or beyond the usual limits of such assays.
Test [2] deals with HLA-A*02:01. The test is described as above.
In test [3] the target is HLA-A*03:01. The description is as above.
In test [4] the target is HLA-A*11:01. The test is described as above.
For test [5], the target named is HLA-A*24:02. The test is described as above. To be noted: source organism: Influenza A virus (A/tiger/Thailand/CU-T4/04(H5N1)).
In test [6] the target is HLA-A*69:01. The description is as above.
For test [7], the target named is HLA-B*07:02. Described as above.
Test [8] addresses HLA-B*08:01. The description is as above.
The target in test [9] is HLA-B*08:02. The description is as above. The settings on record: source organism: Influenza A virus(A/swine/Shandong/fZC/2003(H9N2)).
The target in test [10] is HLA-B*15:01. The test is described as above.
Test [11] has as its target HLA-B*27:05. The description is as above.
In test [12] the target is HLA-B*35:01. The test is described as above.
In test [13] the target is HLA-B*40:01. The test is described as above.
For test [14], the target named is HLA-B*58:01. Described as above.
The target in test [15] is HLA-B*46:01. Description: IEDB peptide-MHC binding, purified MHC/competitive/fluorescence; filed as Kd, often an IC50 or EC50 that approximates it; ≥ and ≤ were set here for values at or beyond the usual limits of such assays.
For test [16], the target named is HLA-A*02:03. As to the kind of experiment: IEDB peptide-MHC binding, purified MHC/direct/fluorescence; filed as Kd, often an IC50 or EC50 that approximates it; ≥ and ≤ were set here for values at or beyond the usual limits of such assays.
Test [17] deals with HLA-A*02:11. Described as above.
Test [18] has as its target HLA-A*02:12. The description is as above.
Test [19] addresses HLA-A*02:16. Described as above.
Test [20] addresses HLA-A*02:19. Described as above.
The target in test [21] is HLA-A*23:01. Described as above.
Test [22] concerns the target HLA-A*24:03. Described as above. To be noted: source organism: Choclo virus.
Test [23] addresses HLA-A*68:02. The test is described as above.
In test [24] the target is HLA-A*02:01. Description: IEDB peptide-MHC binding, purified MHC/competitive/fluorescence; filed as Kd, often an IC50 or EC50 that approximates it; ≥ and ≤ were set here for values at or beyond the usual limits of such assays.
Test [25] deals with HLA-A*26:01. The description is as above.
In test [26] the target is HLA-A*69:01. Described as above.
Test [27] has as its target HLA-B*18:01. Described as above.
In test [28] the target is HLA-B*27:03. The test is described as above.
For test [29], the target named is HLA-B*39:01. The test is described as above.
For test [30], the target named is HLA-B*51:01. The description is as above.
Test [31] has as its target HLA-B*57:01. Described as above.
Test [32] concerns the target HLA-A*29:02. As to the kind of experiment: IEDB peptide-MHC binding, purified MHC/direct/fluorescence; filed as Kd, often an IC50 or EC50 that approximates it; ≥ and ≤ were set here for values at or beyond the usual limits of such assays. To be noted: source organism: Convict Creek 107 virus.
Test [33] has as its target HLA-A*24:03. Description: IEDB peptide-MHC binding, purified MHC/competitive/fluorescence; filed as Kd, often an IC50 or EC50 that approximates it; ≥ and ≤ were set here for values at or beyond the usual limits of such assays. The settings on record: source organism: Orthohantavirus sinnombreense.
Test [34] has as its target HLA-B*15:17. The description is as above. To be noted: source organism: Orthohantavirus sinnombreense.
Test [35] concerns the target HLA-A*02:11. Described as above. The settings on record: source organism: Bradyrhizobium diazoefficiens.
Test [36] has as its target HLA-A*26:01. As to the kind of experiment: IEDB peptide-MHC binding, purified MHC/direct/fluorescence; filed as Kd, often an IC50 or EC50 that approximates it; ≥ and ≤ were set here for values at or beyond the usual limits of such assays. The settings on record: source organism: Yersinia enterocolitica.
Test [37] concerns the target HLA-A*30:01. The test is described as above. The settings on record: source organism: Yersinia enterocolitica.
The target of test [38] is HLA-A*31:01. Described as above. To be noted: source organism: Yersinia enterocolitica.
Test [39] deals with HLA-B*44:02. The test is described as above. The settings on record: source organism: Yersinia enterocolitica.
The target of test [40] is HLA-C*14:02. The test is described as above. The settings on record: source organism: Yersinia enterocolitica.
[41] abbreviates: source organism: Influenza A virus (A/tiger/Thailand/CU-T4/04(H5N1)).
[42] abbreviates: source organism: Influenza A virus (A/Puerto Rico/8/34/Mount Sinai(H1N1)).
Where [43] appears, read: source organism: Convict Creek 107 virus.
[44] abbreviates: source organism: Orthohantavirus sinnombreense.
Setting [45] is: source organism: Yersinia enterocolitica.

Take FVRTLFQQM: the Kd in [1] (setting [41]), in [2] (setting [41]), in test [3] (setting [41]), in test [4] (setting [41]), in test [5] and in [6] (setting [41]) was not below 20 µM throughout. Further, the Kd in [7] (setting [42]) is 0.5 µM; in test [8] (setting [42]), 0.188 µM; in test [9], not below 20 µM; in test [10] (setting [42]), 5.96 µM; in test [11] (setting [41]), not below 20 µM; in [12] (source organism: Influenza A virus(A/swine/Shandong/fZC/2003(H9N2))) it was 0.297 µM. Moreover, the Kd in [13] (setting [41]), in test [14] (setting [41]) and in test [15] (source organism: Influenza A virus H3N2) was not below 20 µM each time.

Turning to KACDLAMCY, the Kd in [1] (source organism: Pergamino virus) is 3.28 µM; in [16] (source organism: Choclo virus) it was not below 20 µM; in test [17] (source organism: Choclo virus) it was not below 20 µM; in test [18] (source organism: Choclo virus), not below 20 µM; in test [19] (source organism: Choclo virus), not below 20 µM; in test [20] (source organism: Choclo virus), not below 20 µM. In addition, the Kd in test [21] (source organism: Choclo virus), in test [22], in test [23] (source organism: Choclo virus), in test [24] (source organism: Choclo virus), in [25] (source organism: Choclo virus) and in test [26] (source organism: Choclo virus) was not below 20 µM throughout. Besides, the Kd in [27] (source organism: Choclo virus), in test [28] (source organism: Choclo virus), in test [29] (source organism: Choclo virus), in [15] (source organism: Choclo virus), in test [30] (source organism: Choclo virus) and in test [31] (source organism: Choclo virus) was not below 20 µM each time.

Consider LFPELECFF, for which the Kd in [16] (setting [43]), in test [17] (setting [43]), in test [18] (setting [43]), in [19] (setting [43]), in test [20] (setting [43]) and in test [3] (setting [43]) was not below 20 µM in each case. The Kd in [21] (setting [43]) was not below 20 µM; in [32] it was not below 20 µM; in test [23] (setting [43]), not below 20 µM; in [24] (setting [44]), not below 20 µM; in test [33], 0.0008 µM; in [25] (setting [44]), not below 20 µM. In addition, the Kd in test [26] (setting [44]), in test [34], in [27] (setting [44]), in [28] (setting [44]), in test [29] (setting [44]) and in test [15] (setting [44]) was not below 20 µM throughout. Besides, the dissociation constant Kd in test [30] (setting [44]) and in test [31] (setting [44]) was not below 20 µM each time.

As for VTPGPHAQI, the Kd in test [24] (source organism: Bradyrhizobium diazoefficiens) was 1.05 µM; in [35], 0.0704 µM.

In the case of YIFRNTINM, the Kd in test [1] (setting [45]) was not below 20 µM; in test [2] (setting [45]) it was 0.222 µM; in [3] (setting [45]), not below 20 µM; in [4] (setting [45]), 7.78 µM; in test [36], 0.729 µM; in test [37] it was 1.79 µM. Also, the Kd in [38] is not below 20 µM; in test [6] (setting [45]), 0.2 µM; in [7] (setting [45]), 7.86 µM; in test [8] (setting [45]), not below 20 µM; in test [10] (setting [45]) it was 0.298 µM; in test [11] (setting [45]) it was not below 20 µM. The Kd in test [12] (setting [45]) was 0.0827 µM; in test [13] (setting [45]) it was not below 20 µM; in test [39], not below 20 µM; in test [14] (setting [45]), 0.508 µM; in test [40], 0.12 µM.
